# Reference: the domain aggregation screens of Martell et al. (2025)
# Assay: soluble fraction after stress (log2 fold change); higher = more stays soluble; pooled small domains, quantitative proteomics
# Conditions: stress: 75 degC
# 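Note: 20 min heating vs room temperature control held 20 min.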
row,Sequence,soluble fraction (log2)
1,HMDSIGTQIRKLREEAEMPLRKLSALLDIDQSTLSKIERDERRANTQMIEQIAKIFKVNKEQLLVA,-0.77
2,HMDSKPNDLLFVYVSQLIRSLTLNSSKKDSELADELEVSISQIRIWLKKLINEQLIVKESKPVKYRWKG,-2.84
3,HMDSLARKTVNGAEFYIYPVESAEGFYSLRRKFGVSQEEVIKYNPSAQNGLKSGQVLLIPVT,-0.298
4,HMDSLQDFAYEEIKKRIQNGEYAPGTKLNTQEISDSLGISRSPVLAAINRLIALGLVEATPRKGTTVA,-0.116
5,HMDSLSGQQGRVLEEINGFLQTGKVLLNGMEWSAVSKQPEDILPVDTEVVVVRVEGAHLVVKKA,-0.286
6,HMDSPRITMDQLRIGLYVYLDLTWFQHPFAFSHFKINSEDQIKTILGLGLKSVRYDPALSDPV,-2.91
7,HMDSQSVFADLVKSLSQKIASIPVWFEYTKNEQYDLISSYVSAKLKDLGVEFSQEEKEKFITMFMNS,-0.609
8,HMDSRQIIAALQARYADETGITALKIKFNNVLGYFVDVPARYGDPLMKPPLSETFIHRQTLASNVRF,-0.0679
9,HMDSSITLMRMYIPKGHNWENKLISDVSMPTNSLALMIKRNGTTIIPKGDTMILAKDTLILSVPSYEPS,-2.6
10,HMDSSNLSLIAGVGPTIEKKLRAAGITSWEQIAAWTEADVAKYDEELNLRGRITRDEWIEQAKELLAGKPP,0.0267
11,HMDSTLDLVATQGGRLDQVLAEMIPEHSRNRLQHWIKAGRVLVDGQPVLEPKHKIYGGEDLAVRVD,0.215
12,HMDSVSAVRTTHLNSYVLLLEKDGMAAATISRYIASMKGFFEYLFREHMIEEDPAFTLKPPKV,0.009
13,HMDSVVPNVVGMTAEKANKALTDAGLNVKITGATIGSGAVVHSQSIPAGTVTSKGTVVSIEMRFAAAEGD,-0.242
14,HMDSYSILGIEKESSMEDIEKAYIDKISKIKKEVKNEKNAAAFEAVLTKAYNDILSQKENISEEQELAE,0.0885
15,HMDTAGSVAIVSKSVIENGFGEIKYKGTYFKAQSDVYIPKDQMVKVIGKGDEQGSFLIVEKLN,0.0706
16,HMDTIASESVRNRIEELISNENPKKPLSDQALVKMLQEFDIKIARRTVAKYREMLKIPPSSKRKQV,-0.265
17,HMDTIGSKVLAFLAGNLLDPTPFNYRFGYLYLNRTSKVIVEETDTYIDSGMRMTQEAVAEIMQKFAQ,-4.12
18,HMDTITMAGERYAVSDLEKVSGDIFEKAFGFEIDPKTADAKDVLPTMPKSDVDLFKKLSGIKP,0.401
19,HMDTIYPFNPNFIDDYKGYVLGLNTNEIDRLLKYRSKGNWINSAEDFKKVTGIDDALLNKLSKSFKFPDWL,-1.81
20,HMDTLRPLGRYQNVHLTKQELTALQSEFSDWSERIERLSSYMASTGRKYQNHAATIRLWAEKDK,0.0841
21,HMDTMINLIGLNLKKAKKELSNLGVNVKKVRYKKSSVYDEGVVIDQSIEAGRNIKNGDFITITVSSGKA,-0.473
22,HMDTNEPFAQLQLRFTDPIQYDYEVIRPVVLFSQSVTDRSDETEMPRTTVREKARQFVTEGMLGLVDK,0.166
23,HMDTNTIIGLRIKALRTEKKYTLKYLSENSGLSIGFLSQLERGMTSVAIDSLDKISKVLDVELSSFFN,-3.05
24,HMDTPMQEAVLQRLRDKVAQAAAGSKLPTVRQLIADYGVGQHVIQAALEKLRTEGLITSHVGKGTFVG,0.325
25,HMDTPMYMAIIEEVRFQIANEILKEGEQLPSIRNLAKTLKVSVITVKRAYKELEEAGYITTIPAKGSKVS,-1.16
26,HMDTQKYDLNDDGRFDVQDVTYLQIKIAGDGELTDNQKKIADYNNDGKIDVQDVTSAQMLIS,0.023

row,Sequence,soluble fraction (log2)
1,HMDTSADEVKQLIASFVEQEDKRKPLSDQKIVELLAEKEQKISRRTVAKYRDALNIPSSSKRKRF,0.469
2,HMDTSISHLVGRTGEAVTDLRPAGTVMIDGELYDARATEGFIEKGEIVKAIKYQYGQLNVRRVSK,0.00609
3,HMDTVSYSTLLRDIDAKEIKQLDLVPGRREVRVQYNDGRRVTVPVFANDNQILRAAESSGTPLTVV,0.0297
4,HMDVADITGTRKAAILLLTMDEELSKELLKEFERHEIEAIGKEIANIKYIPENIVKQVHSEFLKNINKS,-0.282
5,HMDVFTAKTASHIQELREKLGQQAVFGRSDVQNALGLKATRSSALLREMAEHGIIEPVTGYGKGRYHFRS,0.204
6,HMDVIDDAQAMEIALEDAGLSMDDLDRYELELHTKRSELVYSIELKSGTEEYEYDLRAADGTILKRDTDF,0.0166
7,HMDVLDVADNVNDDMSFADAFAAARSEVGAGGIFYWHGKAYGTYYENEWAGMSEEDKADYWDAVARTTS,-0.144
8,HMDVLSPEEWIEFRTAYNNNRYISQYGSKGATIEDDYATRLAMIGGKESYYFLNDPRWTEPGYGNLK,-0.5
9,HMDVMNEIQQKAFDIYIQSASLKNDFTPISERALAKKLHDMGLKSSMSAIGRWKKKFGWVQSLQNKVTLA,-0.173
10,HMDVNKDLLGETLEKAKSYKADDWRKASYEALQKAIVEAEAVYKDEEADQVAVDRKVAALNKAINNLEAKG,0.475
11,HMDVNPETLSYYIERADISLDELRTSVKGIDLFLTGEKQPTFNQISNIAKKLNIPTGLLLINKPIEI,-0.645
12,HMDVNSRIRQFLKKMKITVQTFESSIGKTNGYIAHTKSPTAGVLAEIAKVYPDLNLDWLITGEGEMLKN,-1.42
13,HMDVPTSSITEVKKSPMDVFAQARKAETGVYIFNREKIAGVMLTKEQYEALVEELNTLRDTL,-0.68
14,HMDVQEILGALSPDEKAAIGQLTSGEKHIDQIIAATRLPAARITSALTLLQIKGYVRALPGKRFSLTEKQ,-1.87
15,HMDVQPTTTKTMFYTVQQGETLFSISRKFGISVEEITKKNPLASSGLTVGMELLLPEKKEINSTIQS,0.0149
16,HMDVSEITTIKWIIKETKLGINEKILIYVNSKNFTVETLMEGFEIMSKYLVENVSSDKIVYIKN,0.0119
17,HMDVTDRLARRLQGLRSAQGLSLDALAARSGVSRSNISLIERGQSSPTATVLDKLSAALGVTLAALFEEP,-1.04
18,HMDWVAYGAELRRRRLLAGWTVAELSRRINLSGMTIHQIEKGRGRLRPSELTLAKLAAALGMPTP,-3.58
19,HMDYEVPEELEEKFSENPQFKEAFDNLTPGRQHQYIYHISQAKRSQTRINRIEKYYEHILNGKGMQD,0.111
20,HMDYGTATASAILYLEKIDPENPYLLLAKDTITTNPKMSVNFALKGIIESKKGEKEENLNKALEIMSSL,-0.144
21,HMDYKSNLQEMVQTTKKSVTYELVKEEGPAHDRTFTMNVIVDGIVLGTGTAKSKKEAEQEAAHQALEKKA,-0.253
22,HMDYTGIPQSLLDLMKKDNIMPMQIQRAVAERNYYPVDTPISNYDPMFIEAKLVGAWDQVLNVISHLDLP,-1.25
23,HMDYTPIEVKDLPQAIQDALTKNFSEYTVKSAAYQEDEDGVKIYQVTVVDEEGTEANIFFTEKGE,0.206
24,HMEADERRNEILDAAETLITEKGYSKTTIIDILNQVGIAKGTFYYYFKSKEEVMDAIIERFI,-2.41
25,HMEAEGLDFAPMPGEIGKKLWQEVSKEAWAGWLKHQTMLVNENRLSFVDPAARKYLTEQTEAYFFG,0.131
26,HMEAEMLYQVKVKITNLVIRSGAGAIYPIVKRYASGVLPIYEEKNGYGKIAVGQWISLSPEFVERVD,-3.13

row,Sequence,soluble fraction (log2)
1,HMEAEPRLLDLPPGTRAGRLDKVLAQLLPEHSRSRLQGWIERGGVLVNGKEASVRQVVGPGDQLTVWEEAA,-0.0507
2,HMEAEQLEAIRSALQQLSDMNRTVFNLHVVDGYKHEEIAAMLNITTGTSKAHLHRAKKRLRELID,-1.04
3,HMEAEVIKTASDMADRNGLHNVSLKAIAENLGIRTPSLYNHIGSLDELLREIAHSGMRTMNE,-0.0854
4,HMEAFAEAVASMLRKLQPEFAIDLVGPRELLVNGRRLDLENLYRMVNHEPVRGQEIVEHYLDQLFAG,-1.17
5,HMEAGLRMPEQLTAFSALALLQKVRDSGPLTDAQKEQLDADVLRIEASHFGKADREALELEEILKQWLSRV,0.149
6,HMEAKSSTKALLDVVLGRNGVSTANVAKSLNISVQNASTRLKKLSSEGVIMRSEVSSPTGGIEFIYS,0.109
7,HMEAKTSNPDYHARLGLTEGEGNDSALGVSVKAAEGGFGLLFGNKVGSDQLVRFANEDQVWLVNRALS,0.165
8,HMEALNIEQKKVEIINVLLEKGKGKGRLSYKEISDQIDTVELDKDQMDELYETLMTNGIEIV,0.00136
9,HMEALPSNLRRLRLEAQLTLDRLGALSGVSRAMISKIERGASVPTATMLGKLAAALQVSLSQLL,-1.18
10,HMEAMITEVKRINYGLISDISKSLDPFKSEGGHIIVDKRTNTFILTDLRANIEKMLWSIEIMD,-0.196
11,HMEAPNELLVPEGARPARADRVLAAAFPEHSRTALQRAFDAGLVRRANLVLSRDTAVAGGDRIAFSLPAV,0.0788
12,HMEARYQLREVSLDGLRSGMILNADVLSTDGVLMARKGLEVSGLLRSRLEAFAKMERIEPTFKVLVPIAPP,-2.19
13,HMEASSTAIQAMIRRLIDDENPRKPLSDAKLADLLKSSGIPVARRTVAKYREAMNISASHERVRI,-0.793
14,HMEATEFYLEDLTGQMYNDVVNDEKYAGKIVFEKEEVQSDGEEAIGQILNQRPAGNMNVRIGTTVTLVVNA,0.242
15,HMEATVGSRVRLARIGLTLTQKQLAQAVGVSANHLAMVERGSKHASEDLLQRIATATHTTYEWLMGTSEHQ,-2.43
16,HMEAVIENAAIIKQNSGGYAVRATVNGVDLGMKPVERATALLYFSLTDKLEKDRLLSHTLQKTYGDLSA,-0.212
17,HMEAYLPVTVVSDGKILTGNLEKAGKNEKWLENVLSELKTDVKNTLLLTVDPKDGLIFYPKG,0.408
18,HMEAYMVPNVKNKTLNEAQQALSNQKLKGLVIDSSYVKGVPDGMVLDQNPAGGARVKEGRTIYLTVTTS,0.237
19,HMEDADERRALEVLNQLLDLPEREQEAALAALSLPPALARRVRSLLSVQTRAADLFDTAPSP,0.0142
20,HMEDAFLQRLISIIEANLSNVDFNVKMLAEQLNMSQPTLYRKVKQRSELSVIDMIRSIRILSLIHISEPTR,-1.07
21,HMEDDRLIQNLLLTAKNLVMDVGRMDESALAENEDTVRTAMLFALGYLYENRSNPDYHKLTLNLRSILFA,-0.38
22,HMEDEISLGAINVPRGSVIVTAGGARLVEGSDYTVDYYSGTVKILNKSLLDAGTPINVSLET,-0.0249
23,HMEDETAKVLRLLAENNGYLPYNDKSDPTDIYAFFGMSKKAFKMTTGNLYKQKKIQFTQTGIQLIE,-1.77
24,HMEDEVSSSAAYQALLEKGVSKTLARSWVIDYGEAYVLDKVDLTTSQAARGKIKSSTAGFLKAAIEEDFHN,-0.0992
25,HMEDGEALARAVASLPGKYREVLFLKYSHGYSVDEIALILSMSKENVKKTIQRARKKLEQLLESE,-1.3
